Experimental data as given in article PMC11118385 (bioRxiv, 2024).

B1: human GrpEL1 (wild type) (natural protein)
chain: CTATKQKNSGQNLEEDMGQSEQKADPPATEKTLLEEKVKLEEQLKETVEKYKRALADTENLRQRSQKLVEEAKLYGIQAFCKDLLEVADVLEKATQCVPKEEIKDDNPHLKNLYEGLVMTEVQIQKVFTKHGLLKLNPVGAKFDPYEHEALFHTPVEGKEPGTVALVSKVGYKLHGRTLRPALVGVVKEA
B2: human GrpEL1 Y173A mutant (natural protein)
chain: CTATKQKNSGQNLEEDMGQSEQKADPPATEKTLLEEKVKLEEQLKETVEKYKRALADTENLRQRSQKLVEEAKLYGIQAFCKDLLEVADVLEKATQCVPKEEIKDDNPHLKNLYEGLVMTEVQIQKVFTKHGLLKLNPVGAKFDPAEHEALFHTPVEGKEPGTVALVSKVGYKLHGRTLRPALVGVVKEA

What was measured:
cryo-EM structure = molecular target: the molecule itself; test: cryo-EM structure
[1] = molecular target: human mitochondrial Hsp70 (mortalin) R126W mutant (human, UniProt P38646 47-679, R126W); test: cryo-EM structure
Chain of human mitochondrial Hsp70 (mortalin) R126W mutant (P38646 47-679 R126W): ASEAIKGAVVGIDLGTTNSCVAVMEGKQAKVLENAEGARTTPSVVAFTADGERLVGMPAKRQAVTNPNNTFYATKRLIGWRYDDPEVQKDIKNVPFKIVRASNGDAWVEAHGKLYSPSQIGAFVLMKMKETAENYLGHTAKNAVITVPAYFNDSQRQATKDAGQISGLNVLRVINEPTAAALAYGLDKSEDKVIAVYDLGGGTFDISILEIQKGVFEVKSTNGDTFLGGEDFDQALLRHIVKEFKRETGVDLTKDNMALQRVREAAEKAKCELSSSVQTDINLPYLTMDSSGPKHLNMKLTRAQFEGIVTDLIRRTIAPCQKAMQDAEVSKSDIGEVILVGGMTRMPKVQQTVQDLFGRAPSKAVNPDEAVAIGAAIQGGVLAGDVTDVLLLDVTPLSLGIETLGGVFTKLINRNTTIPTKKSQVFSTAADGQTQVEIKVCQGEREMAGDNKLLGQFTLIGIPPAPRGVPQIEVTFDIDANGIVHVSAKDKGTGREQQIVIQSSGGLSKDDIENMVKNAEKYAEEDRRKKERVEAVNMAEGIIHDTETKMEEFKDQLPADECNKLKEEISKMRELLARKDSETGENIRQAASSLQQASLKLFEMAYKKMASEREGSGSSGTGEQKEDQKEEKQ

Binder	stoichiometry N (cryo-EM structure)	binding result [1]
B1	2	–
B2	–	binds
